Measured values as given in the Human Domainome abundance scans (Beltran et al. 2025).
± gives the uncertainty stated by the source.

B1: Ankyrin-2, residues 3571 to 3650; numbered along this chain, Q01484 (parent)
chain: ERLAYIADHLGFSWTELARELDFTEEQIHQIRIENPNSLQDQSHALLKYWLERDGKHATDTNLVECLTKINRMDIVHLME

Variants of: B1
Experiment: abundance fitness (aPCA) (normalised: wild type 0, dead -1); higher = more abundant; growth selection in yeast, the domain comes from the species named
Conditions: Homo sapiens

Variant | abundance fitness
EDLAYIADHLGFSWTELARELDFTEEQIHQIRIENPNSLQDQSHALLKYWLERDGKHATDTNLVECLTKINRMDIVHLME [R2D] | 0.107 ± 0.35
EGLAYIADHLGFSWTELARELDFTEEQIHQIRIENPNSLQDQSHALLKYWLERDGKHATDTNLVECLTKINRMDIVHLME [R2G] | -0.208 ± 0.34
EPLAYIADHLGFSWTELARELDFTEEQIHQIRIENPNSLQDQSHALLKYWLERDGKHATDTNLVECLTKINRMDIVHLME [R2P] | -0.454 ± 0.39
ESLAYIADHLGFSWTELARELDFTEEQIHQIRIENPNSLQDQSHALLKYWLERDGKHATDTNLVECLTKINRMDIVHLME [R2S] | 0.026 ± 0.17
EVLAYIADHLGFSWTELARELDFTEEQIHQIRIENPNSLQDQSHALLKYWLERDGKHATDTNLVECLTKINRMDIVHLME [R2V] | 0.024 ± 0.23
EWLAYIADHLGFSWTELARELDFTEEQIHQIRIENPNSLQDQSHALLKYWLERDGKHATDTNLVECLTKINRMDIVHLME [R2W] | 0.056 ± 0.24
ERAAYIADHLGFSWTELARELDFTEEQIHQIRIENPNSLQDQSHALLKYWLERDGKHATDTNLVECLTKINRMDIVHLME [L3A] | -0.164 ± 0.065
ERCAYIADHLGFSWTELARELDFTEEQIHQIRIENPNSLQDQSHALLKYWLERDGKHATDTNLVECLTKINRMDIVHLME [L3C] | -0.086 ± 0.22
EREAYIADHLGFSWTELARELDFTEEQIHQIRIENPNSLQDQSHALLKYWLERDGKHATDTNLVECLTKINRMDIVHLME [L3E] | -0.289 ± 0.23
ERFAYIADHLGFSWTELARELDFTEEQIHQIRIENPNSLQDQSHALLKYWLERDGKHATDTNLVECLTKINRMDIVHLME [L3F] | 0.143 ± 0.075
ERGAYIADHLGFSWTELARELDFTEEQIHQIRIENPNSLQDQSHALLKYWLERDGKHATDTNLVECLTKINRMDIVHLME [L3G] | -0.181 ± 0.11
ERHAYIADHLGFSWTELARELDFTEEQIHQIRIENPNSLQDQSHALLKYWLERDGKHATDTNLVECLTKINRMDIVHLME [L3H] | -0.038 ± 0.13
ERIAYIADHLGFSWTELARELDFTEEQIHQIRIENPNSLQDQSHALLKYWLERDGKHATDTNLVECLTKINRMDIVHLME [L3I] | 0.05 ± 0.24
ERKAYIADHLGFSWTELARELDFTEEQIHQIRIENPNSLQDQSHALLKYWLERDGKHATDTNLVECLTKINRMDIVHLME [L3K] | -0.179 ± 0.11
ERMAYIADHLGFSWTELARELDFTEEQIHQIRIENPNSLQDQSHALLKYWLERDGKHATDTNLVECLTKINRMDIVHLME [L3M] | 0.028 ± 0.095
ERNAYIADHLGFSWTELARELDFTEEQIHQIRIENPNSLQDQSHALLKYWLERDGKHATDTNLVECLTKINRMDIVHLME [L3N] | -0.074 ± 0.26
ERPAYIADHLGFSWTELARELDFTEEQIHQIRIENPNSLQDQSHALLKYWLERDGKHATDTNLVECLTKINRMDIVHLME [L3P] | -0.215 ± 0.064
ERQAYIADHLGFSWTELARELDFTEEQIHQIRIENPNSLQDQSHALLKYWLERDGKHATDTNLVECLTKINRMDIVHLME [L3Q] | -0.031 ± 0.076
ERRAYIADHLGFSWTELARELDFTEEQIHQIRIENPNSLQDQSHALLKYWLERDGKHATDTNLVECLTKINRMDIVHLME [L3R] | -0.077 ± 0.051
ERSAYIADHLGFSWTELARELDFTEEQIHQIRIENPNSLQDQSHALLKYWLERDGKHATDTNLVECLTKINRMDIVHLME [L3S] | 0.043 ± 0.069
ERTAYIADHLGFSWTELARELDFTEEQIHQIRIENPNSLQDQSHALLKYWLERDGKHATDTNLVECLTKINRMDIVHLME [L3T] | -0.019 ± 0.075
ERVAYIADHLGFSWTELARELDFTEEQIHQIRIENPNSLQDQSHALLKYWLERDGKHATDTNLVECLTKINRMDIVHLME [L3V] | 0.005 ± 0.089
ERWAYIADHLGFSWTELARELDFTEEQIHQIRIENPNSLQDQSHALLKYWLERDGKHATDTNLVECLTKINRMDIVHLME [L3W] | -0.117 ± 0.05

Variant | abundance fitness
ERYAYIADHLGFSWTELARELDFTEEQIHQIRIENPNSLQDQSHALLKYWLERDGKHATDTNLVECLTKINRMDIVHLME [L3Y] | -0.155 ± 0.2
ERLDYIADHLGFSWTELARELDFTEEQIHQIRIENPNSLQDQSHALLKYWLERDGKHATDTNLVECLTKINRMDIVHLME [A4D] | 0.039 ± 0.084
ERLEYIADHLGFSWTELARELDFTEEQIHQIRIENPNSLQDQSHALLKYWLERDGKHATDTNLVECLTKINRMDIVHLME [A4E] | -0.017 ± 0.054
ERLFYIADHLGFSWTELARELDFTEEQIHQIRIENPNSLQDQSHALLKYWLERDGKHATDTNLVECLTKINRMDIVHLME [A4F] | 0.129 ± 0.068
ERLGYIADHLGFSWTELARELDFTEEQIHQIRIENPNSLQDQSHALLKYWLERDGKHATDTNLVECLTKINRMDIVHLME [A4G] | 0.052 ± 0.035
ERLHYIADHLGFSWTELARELDFTEEQIHQIRIENPNSLQDQSHALLKYWLERDGKHATDTNLVECLTKINRMDIVHLME [A4H] | 0.016 ± 0.067
ERLKYIADHLGFSWTELARELDFTEEQIHQIRIENPNSLQDQSHALLKYWLERDGKHATDTNLVECLTKINRMDIVHLME [A4K] | -0.029 ± 0.08
ERLLYIADHLGFSWTELARELDFTEEQIHQIRIENPNSLQDQSHALLKYWLERDGKHATDTNLVECLTKINRMDIVHLME [A4L] | -0.058 ± 0.04
ERLMYIADHLGFSWTELARELDFTEEQIHQIRIENPNSLQDQSHALLKYWLERDGKHATDTNLVECLTKINRMDIVHLME [A4M] | 0.004 ± 0.078
ERLNYIADHLGFSWTELARELDFTEEQIHQIRIENPNSLQDQSHALLKYWLERDGKHATDTNLVECLTKINRMDIVHLME [A4N] | -0.024 ± 0.11
ERLPYIADHLGFSWTELARELDFTEEQIHQIRIENPNSLQDQSHALLKYWLERDGKHATDTNLVECLTKINRMDIVHLME [A4P] | -0.071 ± 0.029
ERLRYIADHLGFSWTELARELDFTEEQIHQIRIENPNSLQDQSHALLKYWLERDGKHATDTNLVECLTKINRMDIVHLME [A4R] | -0.007 ± 0.043
ERLTYIADHLGFSWTELARELDFTEEQIHQIRIENPNSLQDQSHALLKYWLERDGKHATDTNLVECLTKINRMDIVHLME [A4T] | 0.109 ± 0.048
ERLWYIADHLGFSWTELARELDFTEEQIHQIRIENPNSLQDQSHALLKYWLERDGKHATDTNLVECLTKINRMDIVHLME [A4W] | -0.11 ± 0.061
ERLYYIADHLGFSWTELARELDFTEEQIHQIRIENPNSLQDQSHALLKYWLERDGKHATDTNLVECLTKINRMDIVHLME [A4Y] | -0.075 ± 0.1
ERLAAIADHLGFSWTELARELDFTEEQIHQIRIENPNSLQDQSHALLKYWLERDGKHATDTNLVECLTKINRMDIVHLME [Y5A] | 0.066 ± 0.14
ERLACIADHLGFSWTELARELDFTEEQIHQIRIENPNSLQDQSHALLKYWLERDGKHATDTNLVECLTKINRMDIVHLME [Y5C] | 0.137 ± 0.17
ERLAGIADHLGFSWTELARELDFTEEQIHQIRIENPNSLQDQSHALLKYWLERDGKHATDTNLVECLTKINRMDIVHLME [Y5G] | -0.231 ± 0.45
ERLAHIADHLGFSWTELARELDFTEEQIHQIRIENPNSLQDQSHALLKYWLERDGKHATDTNLVECLTKINRMDIVHLME [Y5H] | 0.013 ± 0.28
ERLALIADHLGFSWTELARELDFTEEQIHQIRIENPNSLQDQSHALLKYWLERDGKHATDTNLVECLTKINRMDIVHLME [Y5L] | 0.096 ± 0.29
ERLAMIADHLGFSWTELARELDFTEEQIHQIRIENPNSLQDQSHALLKYWLERDGKHATDTNLVECLTKINRMDIVHLME [Y5M] | -0.559 ± 0.43
ERLANIADHLGFSWTELARELDFTEEQIHQIRIENPNSLQDQSHALLKYWLERDGKHATDTNLVECLTKINRMDIVHLME [Y5N] | 0.386 ± 0.43
ERLAPIADHLGFSWTELARELDFTEEQIHQIRIENPNSLQDQSHALLKYWLERDGKHATDTNLVECLTKINRMDIVHLME [Y5P] | -0.019 ± 0.17

Variant | abundance fitness
ERLARIADHLGFSWTELARELDFTEEQIHQIRIENPNSLQDQSHALLKYWLERDGKHATDTNLVECLTKINRMDIVHLME [Y5R] | -0.505 ± 0.32
ERLAVIADHLGFSWTELARELDFTEEQIHQIRIENPNSLQDQSHALLKYWLERDGKHATDTNLVECLTKINRMDIVHLME [Y5V] | -0.084 ± 0.19
ERLAWIADHLGFSWTELARELDFTEEQIHQIRIENPNSLQDQSHALLKYWLERDGKHATDTNLVECLTKINRMDIVHLME [Y5W] | -0.143 ± 0.26
ERLAYKADHLGFSWTELARELDFTEEQIHQIRIENPNSLQDQSHALLKYWLERDGKHATDTNLVECLTKINRMDIVHLME [I6K] | -0.807 ± 0.45
ERLAYNADHLGFSWTELARELDFTEEQIHQIRIENPNSLQDQSHALLKYWLERDGKHATDTNLVECLTKINRMDIVHLME [I6N] | -0.6 ± 0.24
ERLAYPADHLGFSWTELARELDFTEEQIHQIRIENPNSLQDQSHALLKYWLERDGKHATDTNLVECLTKINRMDIVHLME [I6P] | -0.412 ± 0.16
ERLAYRADHLGFSWTELARELDFTEEQIHQIRIENPNSLQDQSHALLKYWLERDGKHATDTNLVECLTKINRMDIVHLME [I6R] | -0.717 ± 0.26
ERLAYSADHLGFSWTELARELDFTEEQIHQIRIENPNSLQDQSHALLKYWLERDGKHATDTNLVECLTKINRMDIVHLME [I6S] | -0.642 ± 0.23
ERLAYVADHLGFSWTELARELDFTEEQIHQIRIENPNSLQDQSHALLKYWLERDGKHATDTNLVECLTKINRMDIVHLME [I6V] | -0.126 ± 0.46
ERLAYWADHLGFSWTELARELDFTEEQIHQIRIENPNSLQDQSHALLKYWLERDGKHATDTNLVECLTKINRMDIVHLME [I6W] | -0.485 ± 0.22
ERLAYIEDHLGFSWTELARELDFTEEQIHQIRIENPNSLQDQSHALLKYWLERDGKHATDTNLVECLTKINRMDIVHLME [A7E] | -0.265 ± 0.21
ERLAYIGDHLGFSWTELARELDFTEEQIHQIRIENPNSLQDQSHALLKYWLERDGKHATDTNLVECLTKINRMDIVHLME [A7G] | 0.12 ± 0.28
ERLAYIKDHLGFSWTELARELDFTEEQIHQIRIENPNSLQDQSHALLKYWLERDGKHATDTNLVECLTKINRMDIVHLME [A7K] | -0.041 ± 0.25
ERLAYILDHLGFSWTELARELDFTEEQIHQIRIENPNSLQDQSHALLKYWLERDGKHATDTNLVECLTKINRMDIVHLME [A7L] | -0.008 ± 0.11
ERLAYIMDHLGFSWTELARELDFTEEQIHQIRIENPNSLQDQSHALLKYWLERDGKHATDTNLVECLTKINRMDIVHLME [A7M] | -0.045 ± 0.25
ERLAYIPDHLGFSWTELARELDFTEEQIHQIRIENPNSLQDQSHALLKYWLERDGKHATDTNLVECLTKINRMDIVHLME [A7P] | -0.36 ± 0.18
ERLAYIQDHLGFSWTELARELDFTEEQIHQIRIENPNSLQDQSHALLKYWLERDGKHATDTNLVECLTKINRMDIVHLME [A7Q] | -0.089 ± 0.35
ERLAYIRDHLGFSWTELARELDFTEEQIHQIRIENPNSLQDQSHALLKYWLERDGKHATDTNLVECLTKINRMDIVHLME [A7R] | 0.087 ± 0.48
ERLAYISDHLGFSWTELARELDFTEEQIHQIRIENPNSLQDQSHALLKYWLERDGKHATDTNLVECLTKINRMDIVHLME [A7S] | 0.052 ± 0.33
ERLAYITDHLGFSWTELARELDFTEEQIHQIRIENPNSLQDQSHALLKYWLERDGKHATDTNLVECLTKINRMDIVHLME [A7T] | 0.029 ± 0.15
ERLAYIWDHLGFSWTELARELDFTEEQIHQIRIENPNSLQDQSHALLKYWLERDGKHATDTNLVECLTKINRMDIVHLME [A7W] | -0.053 ± 0.24
ERLAYIAAHLGFSWTELARELDFTEEQIHQIRIENPNSLQDQSHALLKYWLERDGKHATDTNLVECLTKINRMDIVHLME [D8A] | 0.034 ± 0.18
ERLAYIAEHLGFSWTELARELDFTEEQIHQIRIENPNSLQDQSHALLKYWLERDGKHATDTNLVECLTKINRMDIVHLME [D8E] | -0.075 ± 0.46
